From the nanobody polyreactivity screen of Harvey et al. (2022)

Assay: yeast display, Sf9 membrane polyspecificity reagent, FACS + sequencing; frameworks hold sequencing errors
How it was run: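 A synthetic nanobody library was expressed on Saccharomyces cerevisiae BJ5465 by galactose induction for 36–48 hours. The library was stained for 1 hour at 4 °C with 10% biotinylated, detergent-solubilized Sf9 membrane reagent and enriched with streptavidin microbeads before FACS. Low and high (top ~1%) gates were set on anti-HA fluorescence for expression and streptavidin fluorescence for reagent binding, and each polyreactivity label reflects the gate of origin.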

Row | Sequence | polyreactivity (PSR sort gate)
1 | QVQLVESGGGLVQAGGSLRLSCAASGFISSYYAMGWYRQAPGKERELVAAITSGGRTYYADSVKGRFTISRDNAKNTDYLQMNSLKPEDTAVYYCGKYSRTNAFDYWGQGTQVTVSS | high polyreactivity
2 | QVQLVESGGGLVQAGGSLRLSCAASGFIFDSYAMGWYRQAPGKERELVAAISWSGSSTYYADSVKGRFTISRDNAKNTVYLQMNSLKPEDTAVYYCAALVYPYWGCSMYYWGQGTQVTVSS | high polyreactivity
3 | QVQLVETAGGLVQAGGSLRLSCAASGRIFYGYTLGWYRPAPGKERELVAAISRGGSTYYADSVKGRFTISRDNAKNTVYLQMNSLKPEDPAVYYCAKTYRRRYYPYFHFRYYWGQGTQVTVSS | high polyreactivity
4 | QVQLVESGGGLVQAGGSLRLSCAASGSIFSSYAMGWYRQAPGKEREVVASINSAGSTNYADSVKGRFTISRDNAKNTVYLQMNSLKPDDTAVYYCAASGGTWVNYRPEYDYWGQGTQVTVSS | low polyreactivity
5 | QVQLVESGGGLVQAGGSLRLSCAASGRTFYRYAMGWYRQAPGKEREFVAAISNGGSNTRYADSVKGRFTISRDNAKNTVYLQMNSLKPEDTAVYYCAADYKRNQEVDYWGQGTQVTVSS | high polyreactivity
6 | QFQIVESGGGLVQAGGSLRISCAASVFIFARYAIGWYRQAHGKEREFVAAISSSGGSTYYADSVKGRFTISRDNAKNTVYLQMNSLKPADTAVYYCNVRLRIRSGYWGQGSQVTVSS | high polyreactivity
7 | QVQLVESGGGFVKAGGSLRLSCASSGSIFYSYAMGWYRQAPGKEREFVAAISWSASRTYYADSVKGRFTISRDNAKNTVYLQMNSLKPEDTAVYDCAARTYYNSGYYYWGQGTQVTVSS | high polyreactivity
8 | QVQLVESGGGLVQAGGSLRLSCAPSGRIFPYYAMGRYRQAPGKERELVATITASSGSTYYADSVKGRFTISRDNAKNTVYLQMNSLKPEDTAVYYCAAGFVYRPGSYIRFDYWGQGTQVTVSS | high polyreactivity
9 | QVHLVESGGGLVQAGGSLRLSCAASGSTFYANLMGWYRQAPGKESELVAAIDGSGGRTYYADSVKGRFTISRDNAKNTVYLQMNSLKPEDTAVYYCAKKRIVPVIQFGRDYNYWGQGTQVTVSS | high polyreactivity
10 | QVQLVESGGGLVQAGGSLRLSCAASGTFVTYMGWYRQAPGKERELVAAIRNGGSTNYADSVKGRFTISRDNAKNTVYLQMNSLKPEDTAVYYCAARVTYSRGYRGGSRTKYDYWGQGTQVTVSS | low polyreactivity
11 | QVQLVESGGGLVQAGASLRLSCAASGRTFWYNAMGGYRQAPGKERELVAAISSTGGRTYYADSVKGRFTISRDNAKNTVYLQMNSLKPEDTAVYYCAARQLSSHYDYWGQGTQVTVSS | low polyreactivity
12 | QVQLVESGGGLVQAGGSLRLSCAASGITLGTYAMGWSRQAPGKERELVAGISTSGGSTYYADSVKGPFTISRDNAKNTVYLQMNSLKPEETAVYYCAKRRYGSGYYRYRGYDYWGQGTQVTVSS | high polyreactivity
13 | QVQHVESGGGLVQAGGSLRLSCAASGTTFYSYAMGWYRQAPGKERELVAAISWRTSSTYYADSVKGRFTISRDNAKNTVYLQMNSLKPEDTAVYYCAAETWLGSWRQVGMDYWGQGTQVTVSS | high polyreactivity
14 | QVQLVESGGGLVQAGGSLRLSCAASGFIFYRYAMGWYRQAPGKERELVAAISWGGGSTTYYADSVKGRFTISRDNAKNTVYLQMNRLKPEDTAVYYCAAYIGKGYGSEYYYWGQGTQVTVSS | low polyreactivity
15 | QLQLVESGGGLVQAGGSLRLSCAASGSIFVTYAMGWYSQAPGKEMELVAAINYSGGSTYYADSVTGRFTISRDNAKNTVYLQMNSLKPEATAVYYCAAAVAVFSFDYPHYYEYEYWGQGTQVTVSS | low polyreactivity
16 | QVQLVESGAGLVQAGGSLRLSCAASGSTSTLNAMGWYRQAPGTERELVAAISRSGTSTYYADSVKGRFTISRDNAKNTVYLQMNSLKPEDTAVYYCAAYSYGPPYYYWGQGTQVTVSS | high polyreactivity
17 | QVQLVESGGGLVQAGGSLRLSCAASGNTFAENAMGWYRQAPGKERELVDAISNGGTTNYADSVKGRFTISRDNAKNTVYLQMNSLKPEDTAVYYCNAKFGISQPGHSGLLKMDYWGQGTQVTVSS | low polyreactivity
18 | QVQLVESGGGLVQAGGSLRLSCAASGSTFSRYVMVWYRQAPGKERELVAAISRSGSTYYADSVKGRFTISRDNAMNTVYLQMNSLKPEDTAVYYFDATGSKSAGYGYWGQGTQVTVSS | high polyreactivity
19 | QVQLVESAGGLVQAGGSLRLSCAASGLTYVPNAMGWYRQAPGKEREIVAAICNNGGRTYYADSVKGRFTISRDNAKNTVYLEMNSLKPEDTAVYYCAKYLSPGERHSYDYWGQGTQVTVSS | high polyreactivity
20 | HCQLVESGGVLVQEGGSLRISCAASGYTFTPYAMGWYRQAPGKEREFVAGITWRTGRTYYADSVKGRFTISRDIAKNTVYLQMISLKPEDTAVYYCNKYHQRRYYWSYDYWGQGTQVTVSS | low polyreactivity
21 | QVQLVESGGGLVQAGGSLRLSCAASGRIFDKNAMGWYRQAPGKERELVAAISGGGRTYYADSVKGRFTISRDNAKNTVYLLMNSLKPEDTAVYYCNVPYYYTRGSYGYWGQGTQVTVSS | low polyreactivity
22 | QVQLVESGGGLVQAGGSLRLSCAASGRLFYRNAMGWYRQAPGKERELVAAISSSAGSTYYADSVKGRFTISRDNAKNTVYLQMNSLKPEDTAVYYCAASLYSWGQGTQVTVSS | high polyreactivity

Row | Sequence | polyreactivity (PSR sort gate)
23 | QVQLVESGGGLVQAGGSLRLSCAASGFIFETYAMGWYRQEPGKERELVAAISRGASTYYADSVKGRFTISRDNAKNTVYLQMNSLKPEDTAVYYCAAKRLSWHRYGYWGQGTQVTVSS | low polyreactivity
24 | QVQLQESGGGLVQAGGSLRLSCAASGSISHYIFMGWYRQAPGKQREFVAGIGYGGTTNYADSVKGRFTISRDNAKNTVYLQRNSLKPEDTGMYYCAAREATEFYLYYWGQGTQVTVSS | low polyreactivity
25 | QVQLVESGGGLVQAGGSLRLSCAASGSTFTSYAMGWYRQAPGKERELVAAISKSGGSTYYADSVKGRFTISRDNAKNTVYLQMNSLKPEDTAVYYCAKYIAYYGYVPSPWDHPGDDYWGQGTQVTVSS | low polyreactivity
26 | QVQLVESGGGLVQAGGSLRLSCAASGSIFAYYAMGWYRQAPGKESELVADITSSGGITYYADSVKGRFTISRDNAKNTVYLQMISLKPEDTAVYYCNADSWAIGGGSYPYDYWGHGTQVTVSS | low polyreactivity
27 | QVQLVESGAGLVQAGGSLRLSCASSGYIFDRYAMGWYRQAPGKERELVAAISGRGGSTYYADSVKGRFTISRDNAKYTVYLKMNSLKPEDTAVYYCARDVYVRYGQRARYDSWGQGTQVTVSS | high polyreactivity
28 | QVQLQESGGGLVQAGGSLRLSCAASGSISSRDAMGWYRQAPGKEREFVATIASGTTTYYADSVKGSFTISRDNAENTVYLQTYRLKPEDTAVYYCAAPTIQIYPFYYWGQGTQVNVSS | high polyreactivity
29 | QVQLVESGGGLVQAGGSLRLSCAASGLIFKSNAMGWYRPAPGKERELVAAITRTGGSTYYADSVKGRFTISRDNAKNTVYLQMNSLKPEDTAVYYCAKVVGRWRSSWELDYWGQGTQVTVSS | high polyreactivity
30 | QVQLVESGGGLVQAGGSLRLSCAACGYSFPAYAMGWYRQAPGKERELVAAINRRGGTTYYADSVKGRFTISRDNAKNTVYLQMNSLKPEDTAVYYCARYSGLKDMDYWGQGTQVSVSS | high polyreactivity
31 | QVQLVESGGGLVQAGGSLRLSCAASGSIFGYNAMGWYRQAPGKEREFVAAITSGGSTYYADSVKGRFTISRDNAKNTVYLQMNSLKPEDTAVYYCRRRNVDSTRRYDYWGQGTQVTVSS | high polyreactivity
32 | QVQLVESGGGLVQAGGSLRLSCAASGYSFQKYGMGWYRQAPGKERELVAAITRSSGNTYYADSVKGRFTISRDTAKNTVYLQMNSLKPEDTAVYDCAAFYWGGVKYNYWGQGTQVTVSS | high polyreactivity
33 | QVQLVESGGGLVQAGGSLRLSCAASGSIFLWNAMGWYRQAPGKEREFVASITSRGGSTYYADSVKGRFTISRDNAKNTVYLQMNSLKPEDTAVYYCAAVRSKYLYYQGGYSSYGYWGQGTQVTVSS | high polyreactivity
34 | QVQLVESGGGLVQAGGSLRLSCAASGFTFGWYDMGWYRQAPGKERELVASISWSGSSTYYADSVKGRFTISRDNAKNTVYLQMNSLKPEDTAVYYCATPYWRRYDYWGQGTQVTVSS | high polyreactivity
35 | QVQLVESGGGLVQAGGSLRLSCAASGITFYDYAMGWYRQAPGKERELVAAISFSGSRTYYADSVKGRFTISRDNAKNTVYLQMNCLKPEDTAVYYCATDTQDLHGYSWFDYWGQGTQVTVSS | high polyreactivity
36 | QVQLVESGGGLVQAGGSLRLSCAASGSTFVYNAMGWYRQAPGKEREFVAVINWSGGRTYADSVKGRFTISRDNAKNTVYLQMNSLKPEDTAVYYCNAERRTYRVALQYRRYDYWGQGTQVTVSS | high polyreactivity
37 | QVQLVESGGGLVQAGGSLRLSCAASGRIFSHYAMGWYRQAPGKEREFVAAITYSGGSTYYADSVKGRFTISRDNAKNTVYLQMNSLKPEDTAVYYCNAKGYAKYYYWGQGTQVTVSS | high polyreactivity
38 | QLQLVESGGGFVQAGGSLRLSCAASGSTFQIYTMGWYRQAPGKERELVAAITNGGGSTYYADSVKGRFTISRDKANNTVYLQMNSLKPEDTAVYYCAAEQRYPLIILYDYWGQGTQVTVSS | low polyreactivity
39 | QVQLVESGGGLVQAGGSLRLSCAASGITFASYAMGWYRQAPGKERELVAAISTRSGGTYYADSVKGRFTISRDNAKNTVYLQMNSLKPEETAVYYCAAYNVIYTRRMYYWGQGTQVTVSS | high polyreactivity
40 | QVQLVESGGGLVQAGGSLRLSCAASGSTFRYYAMGWYRQAPGKERELVAAISSAGTTYYADSVKGRFTISRDNAKNTVYLQMNSLKPEDTAVYYCTARFVYHSSFAGFDYWGQGTQVTVSS | low polyreactivity
41 | QVQLVESGGGLVLAGGSLRLSCAASGFILLYYAMGWYREATGKERELVAAISWTGGRTYYADSVKGRFTISRDNAKNTVYLQMNRLKPEDTAVYYCNTFKFFCRKYGYWGQGTQVTVSS | low polyreactivity
42 | QVKLVESGGGLVQAGGSLRLSCPASGFIFYDYVMGWYRQAPGKERELVAAISSNGGSTYYADSVKGRFSISRDNAKYTVYLQMNSLKPEDTAVYYCAAEGKSYPWPWYFDYWGQGTQVTVSS | high polyreactivity
43 | QVQLVESGGGLVQAGGSLRLSCAASGSIFSQNAMGWYRQAPGKERELVAAITSSGGNTYADSVKGRFTISRDNAKNTVYLQMNRLKPEDTAVYYCAAGHLVILNRSEYYYWGQGSQVTVSS | low polyreactivity
